Laboratory results reported in FireProtDB (doi:10.1093/protein/gzl019).

Conditions: Bacillus caldolyticus, pH 7, Thermal, Na cacodylate/HCl 0.1 M, reversible: Yes, whole UniProt chain shown

B1: Cold shock protein CspB wild type, P41016 (protein)
chain: MQRGKVKWFNNEKGYGFIEVEGGSDVFVHFTAIQGEGFKTLEEGQEVSFEIVQGNRGPQAANVVKL
CD
  Tm: 76.9 °C
  unfolding enthalpy (van 't Hoff): 58.6 kcal/mol
DSC
  Tm: 76.9 °C
  unfolding enthalpy (calorimetric): 61.4 kcal/mol
